# Experimental data taken from patent US20220289795, “EFFICIENT METHOD FOR PREPARING PPR PROTEIN AND USE OF THE SAME” (EditForce, Inc., published 2022).
# T1: v3.1_PPR22 (Artificial Sequence)
# T1 chain: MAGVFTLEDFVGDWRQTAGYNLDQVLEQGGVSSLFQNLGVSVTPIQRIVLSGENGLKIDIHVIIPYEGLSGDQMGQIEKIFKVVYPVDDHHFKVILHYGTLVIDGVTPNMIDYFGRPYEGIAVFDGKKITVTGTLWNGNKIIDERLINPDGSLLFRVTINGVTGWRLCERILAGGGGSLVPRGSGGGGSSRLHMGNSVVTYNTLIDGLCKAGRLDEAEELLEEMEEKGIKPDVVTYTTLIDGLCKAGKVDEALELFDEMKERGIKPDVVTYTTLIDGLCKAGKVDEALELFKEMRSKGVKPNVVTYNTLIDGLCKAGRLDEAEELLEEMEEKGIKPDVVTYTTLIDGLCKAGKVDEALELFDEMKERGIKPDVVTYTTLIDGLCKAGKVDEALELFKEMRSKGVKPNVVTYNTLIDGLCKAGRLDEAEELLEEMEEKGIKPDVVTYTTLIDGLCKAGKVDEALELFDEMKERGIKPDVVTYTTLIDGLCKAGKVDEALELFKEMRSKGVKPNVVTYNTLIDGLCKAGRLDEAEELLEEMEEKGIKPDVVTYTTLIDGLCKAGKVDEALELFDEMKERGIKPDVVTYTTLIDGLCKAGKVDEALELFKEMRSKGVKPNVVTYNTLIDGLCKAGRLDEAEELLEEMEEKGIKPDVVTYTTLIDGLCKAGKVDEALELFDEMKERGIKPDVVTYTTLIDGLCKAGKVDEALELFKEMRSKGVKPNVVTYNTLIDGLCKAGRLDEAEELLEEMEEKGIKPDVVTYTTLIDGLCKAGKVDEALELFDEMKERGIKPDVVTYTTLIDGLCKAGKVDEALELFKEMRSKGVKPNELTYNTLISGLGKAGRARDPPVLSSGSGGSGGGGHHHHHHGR
# T2: NL_v2_PPR22 (Artificial Sequence)
# T2 chain: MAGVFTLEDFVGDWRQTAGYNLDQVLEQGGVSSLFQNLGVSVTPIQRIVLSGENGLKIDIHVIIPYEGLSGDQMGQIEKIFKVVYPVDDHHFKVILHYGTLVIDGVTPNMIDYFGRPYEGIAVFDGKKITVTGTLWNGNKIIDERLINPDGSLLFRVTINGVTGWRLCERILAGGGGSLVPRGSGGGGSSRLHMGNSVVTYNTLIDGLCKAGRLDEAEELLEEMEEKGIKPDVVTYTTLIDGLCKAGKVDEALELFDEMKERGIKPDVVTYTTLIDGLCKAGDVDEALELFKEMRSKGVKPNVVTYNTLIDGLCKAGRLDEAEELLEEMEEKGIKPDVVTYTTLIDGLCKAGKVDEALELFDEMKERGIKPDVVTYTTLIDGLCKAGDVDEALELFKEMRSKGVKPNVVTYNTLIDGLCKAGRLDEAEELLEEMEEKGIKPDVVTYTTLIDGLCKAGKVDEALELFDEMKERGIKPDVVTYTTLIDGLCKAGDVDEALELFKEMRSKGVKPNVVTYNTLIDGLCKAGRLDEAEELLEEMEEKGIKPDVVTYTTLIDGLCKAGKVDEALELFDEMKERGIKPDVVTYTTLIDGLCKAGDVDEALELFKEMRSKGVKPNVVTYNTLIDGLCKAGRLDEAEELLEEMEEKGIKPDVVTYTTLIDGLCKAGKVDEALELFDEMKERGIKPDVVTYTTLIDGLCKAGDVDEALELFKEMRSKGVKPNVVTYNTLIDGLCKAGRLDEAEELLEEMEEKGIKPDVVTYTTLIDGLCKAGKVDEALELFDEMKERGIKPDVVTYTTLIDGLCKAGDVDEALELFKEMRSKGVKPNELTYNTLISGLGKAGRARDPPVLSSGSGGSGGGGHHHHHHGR
# T3: v3.1_PPR23 (Artificial Sequence)
# T3 chain: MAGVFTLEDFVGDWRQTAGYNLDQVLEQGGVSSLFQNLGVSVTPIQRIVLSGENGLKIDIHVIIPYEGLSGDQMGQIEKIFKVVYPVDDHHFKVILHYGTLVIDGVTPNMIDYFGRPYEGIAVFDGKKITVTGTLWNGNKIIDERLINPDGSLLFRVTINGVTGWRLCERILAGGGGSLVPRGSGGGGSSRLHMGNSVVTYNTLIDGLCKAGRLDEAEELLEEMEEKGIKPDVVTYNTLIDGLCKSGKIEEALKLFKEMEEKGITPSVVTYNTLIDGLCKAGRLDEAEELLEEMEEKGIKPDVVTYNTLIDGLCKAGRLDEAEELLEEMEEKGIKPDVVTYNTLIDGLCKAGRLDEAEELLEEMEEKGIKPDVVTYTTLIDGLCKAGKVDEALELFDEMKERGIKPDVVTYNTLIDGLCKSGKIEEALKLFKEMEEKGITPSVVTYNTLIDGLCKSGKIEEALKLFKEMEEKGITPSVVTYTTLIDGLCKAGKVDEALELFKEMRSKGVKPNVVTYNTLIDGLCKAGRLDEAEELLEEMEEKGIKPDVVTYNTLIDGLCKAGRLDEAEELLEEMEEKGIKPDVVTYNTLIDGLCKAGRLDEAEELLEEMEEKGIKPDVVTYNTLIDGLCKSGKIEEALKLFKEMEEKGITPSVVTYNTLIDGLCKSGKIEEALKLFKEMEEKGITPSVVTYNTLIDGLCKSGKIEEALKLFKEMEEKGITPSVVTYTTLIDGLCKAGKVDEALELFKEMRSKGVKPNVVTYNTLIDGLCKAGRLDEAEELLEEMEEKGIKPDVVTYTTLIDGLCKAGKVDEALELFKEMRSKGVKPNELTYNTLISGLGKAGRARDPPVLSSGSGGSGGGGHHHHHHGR
# T4: NL_v2_PPR23 (Artificial Sequence)
# T4 chain: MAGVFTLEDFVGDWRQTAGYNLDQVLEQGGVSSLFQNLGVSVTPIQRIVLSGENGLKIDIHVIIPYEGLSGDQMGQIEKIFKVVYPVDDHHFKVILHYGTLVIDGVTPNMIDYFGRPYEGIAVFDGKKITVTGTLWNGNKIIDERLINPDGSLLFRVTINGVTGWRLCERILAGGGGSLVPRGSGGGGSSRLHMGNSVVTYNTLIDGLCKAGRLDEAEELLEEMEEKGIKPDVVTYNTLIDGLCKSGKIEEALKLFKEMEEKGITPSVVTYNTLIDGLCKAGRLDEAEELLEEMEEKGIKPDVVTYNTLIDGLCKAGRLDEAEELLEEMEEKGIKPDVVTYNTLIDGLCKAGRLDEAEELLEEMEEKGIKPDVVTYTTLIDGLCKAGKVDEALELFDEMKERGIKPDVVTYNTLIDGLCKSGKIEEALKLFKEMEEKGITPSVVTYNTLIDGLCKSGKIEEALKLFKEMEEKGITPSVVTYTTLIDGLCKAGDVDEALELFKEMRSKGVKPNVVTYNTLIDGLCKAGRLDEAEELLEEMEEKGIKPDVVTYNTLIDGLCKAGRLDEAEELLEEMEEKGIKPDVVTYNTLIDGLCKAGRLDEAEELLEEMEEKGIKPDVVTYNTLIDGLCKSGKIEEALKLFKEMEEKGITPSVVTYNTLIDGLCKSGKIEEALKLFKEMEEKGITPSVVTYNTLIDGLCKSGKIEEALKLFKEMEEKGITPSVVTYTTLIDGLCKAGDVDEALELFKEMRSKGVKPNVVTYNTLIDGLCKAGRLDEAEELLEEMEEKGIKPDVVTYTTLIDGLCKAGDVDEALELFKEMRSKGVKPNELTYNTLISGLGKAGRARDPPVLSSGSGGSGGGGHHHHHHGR
# T5: v3.1_PPR24 (Artificial Sequence)
# T5 chain: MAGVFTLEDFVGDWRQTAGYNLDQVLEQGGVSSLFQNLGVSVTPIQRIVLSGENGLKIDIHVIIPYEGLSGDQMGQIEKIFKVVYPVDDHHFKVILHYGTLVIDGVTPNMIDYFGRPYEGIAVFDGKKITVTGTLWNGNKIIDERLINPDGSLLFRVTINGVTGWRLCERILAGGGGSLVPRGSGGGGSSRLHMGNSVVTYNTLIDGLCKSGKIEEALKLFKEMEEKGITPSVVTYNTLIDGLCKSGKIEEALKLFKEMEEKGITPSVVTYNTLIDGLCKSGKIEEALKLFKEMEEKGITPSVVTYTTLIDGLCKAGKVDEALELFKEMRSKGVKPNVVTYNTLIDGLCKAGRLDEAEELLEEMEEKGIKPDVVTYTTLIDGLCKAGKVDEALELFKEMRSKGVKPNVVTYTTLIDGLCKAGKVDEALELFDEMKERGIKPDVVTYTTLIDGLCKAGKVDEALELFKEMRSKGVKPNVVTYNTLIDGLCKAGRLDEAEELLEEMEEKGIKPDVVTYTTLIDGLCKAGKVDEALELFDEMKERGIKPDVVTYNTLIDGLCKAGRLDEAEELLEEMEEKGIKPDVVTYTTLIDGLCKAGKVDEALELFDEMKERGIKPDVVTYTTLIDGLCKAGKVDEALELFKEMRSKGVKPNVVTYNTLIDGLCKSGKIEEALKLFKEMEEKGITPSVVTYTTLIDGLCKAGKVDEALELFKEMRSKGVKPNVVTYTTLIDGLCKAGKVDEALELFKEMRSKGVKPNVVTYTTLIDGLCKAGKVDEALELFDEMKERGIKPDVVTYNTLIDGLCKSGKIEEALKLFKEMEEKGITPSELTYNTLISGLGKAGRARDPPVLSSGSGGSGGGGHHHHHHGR
# Legend:
# v3.1_PPR22 = target: T1, v3.1_PPR22; assay: ELONA; RPB-ELISA; details: tags: luciferase fusion; label: 5'-biotin
# NL_v2_PPR22 = target: T2, NL_v2_PPR22; assay: ELONA; RPB-ELISA; details: tags: N-term luciferase, C-term 6xHis; label: 5'-biotin
# v3.1_PPR23 = target: T3, v3.1_PPR23; assay: ELONA; RPB-ELISA; details: tags: luciferase fusion; label: 5'-biotin
# NL_v2_PPR23 = target: T4, NL_v2_PPR23; assay: ELONA; RPB-ELISA; details: tags: N-term luciferase, C-term 6xHis; label: 5'-biotin
# v3.1_PPR24 = target: T5, v3.1_PPR24; assay: ELONA; RPB-ELISA; details: tags: luciferase fusion; label: 5'-biotin
# [1] = target: MS2 coat protein (NL_MS2_HIS) (UniProt P03612 SEQ:194-322); assay: ELONA; RPB-ELISA; non-target RNA; details: tags: N-term luciferase, C-term 6xHis; chain copies: 2; label: 5'-biotin
# Sequence of MS2 coat protein (NL_MS2_HIS) (P03612 2-130): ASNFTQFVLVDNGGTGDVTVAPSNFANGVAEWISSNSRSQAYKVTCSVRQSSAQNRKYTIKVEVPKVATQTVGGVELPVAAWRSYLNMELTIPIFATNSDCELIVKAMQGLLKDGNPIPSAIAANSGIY
binder,measurement,setting,value
GACAUGCUGAUGAUGAUGAUGAUGAGACUG (ssRNA) [RNA_22],binding signal,v3.1_PPR22,5.5e+07 luminescence
same,binding signal,NL_v2_PPR22,5.6e+07 luminescence
GACAUGCUCUUUGCCAUUUCCCAUAGACUG (ssRNA) [RNA_23],binding signal,v3.1_PPR23,5.3e+07 luminescence
same,binding signal,NL_v2_PPR23,2.6e+07 luminescence
GACAUGCCCCAUAGAUGUGACAAGCGACUG (ssRNA) [RNA_24],binding signal,v3.1_PPR24,5.5e+07 luminescence
GACAUGCUGGUGUAUCUUGUCUUUAGACUG (ssRNA) [RNA_51],binding result,[1],no binding
